Biological target: FKBP12 (protein used for ITC) (human, UniProt P62942 1-108)
Experiment: ITC

Chain of FKBP12 (protein used for ITC) (P62942 whole entry): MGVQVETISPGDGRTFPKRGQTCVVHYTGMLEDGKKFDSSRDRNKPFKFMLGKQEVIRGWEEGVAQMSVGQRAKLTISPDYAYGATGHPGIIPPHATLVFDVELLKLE

B1: MDM2 (425-491) RING domain (protein used for ITC) (domain or fragment, human, UniProt Q00987 425-491, looked up)
chain: SVESSLPLNAIEPCVICQGRPKNGCIVHGKTGHLMACFTCAKKLKKRNKPCPVCRQPIQMIVLTYFP
Q: Which Kd does the source give for B1 here?
A: 1.94 µM

From PMC5378873 (Oncogene, 2016)
